test: yeast display, Sf9 membrane polyspecificity reagent, FACS + sequencing; frameworks hold sequencing errors
Summary of the method: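 Galactose induction of a Saccharomyces cerevisiae BJ5465 synthetic nanobody display library ran 36–48 hours. The cells were then stained for 1 hour at 4 °C with 10% biotinylated, detergent-solubilized Sf9 membrane reagent, pulled down on streptavidin microbeads and FACS-sorted into low and high (top ~1%) gates on expression and reagent-binding fluorescence. Labels for polyreactivity follow the gate of origin.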

| Sequence | polyreactivity (PSR sort gate) |
| --- | --- |
| QVQLVESGGGLVQAGGSLRLSCAASGSISSKNSMGWYRQAPGKEREFVAVISGTGGSTYYSDSVKGRFTISRDIAKNTVYLQMNSLKPEDTAVYYCAADFPWSTKSWHPDSGDSWGQGTQVTVSS | low polyreactivity |
| QVQLVESGGGLVQAGGSLRLSCAASGFTFYRNAMGWSRQAPGKERELVAAISRGGRTYYADSVKGRFTISRDNAKNTVYLQMNSLKPEDTAVYYCAVGYSGYGSSMDYWGQGTQVTVSS | high polyreactivity |
| QVQLVESGGGLVQAGGSLRVSCAASGSTIITNAMGWYRQATGKERELVAAITYSTGATYYADSVKGRFTISRDNAKNTVYLQMNSQKPEDTACYYCAALLYFFMIDYWGQGTQETVSS | low polyreactivity |
| QVLLVESGGGLVQAGGSLRLSCAASGYTFHVNAMGWYRQAPGKERELVAAINTSGDSTYYADSLKGRFTISRDNAKNTVYLQMNSLKPEDTAVYYCNAKGSVTRIGMEYDYWGQGTQVTVSW | low polyreactivity |
| QVQLQESGGGLEQEGGSLRLSCAASGNISPPADMGWYRQAAGKERELVASIGTGGTTNYADSVKGRFNISRDNAKNTVYLQMNSLKPDDTSVYYCAAVRYEYNPYDYLGQGTQVTVSS | low polyreactivity |
| QVQLVESGGRLVQAGGSLRLSCAASGSILDGNTMGWYRQAPGKEMELVAAITWDGTSTYYADSVKGRFTISRDNAKNTVYLQMNSLKPEDTAVYYCAATKGYSDQSTGYYAYIHYDYWGQGTQVTVSS | low polyreactivity |
| QVQLVESGGGLVQAGGSLRLSCAASGRTLSRNAMGWYRQAPGKEREFVAAISQRGGSTYYADSVKGRFTISRDNAKNTVYLQMNSLKPEDTAVYYCARRYNAQDYARFDYWGQGTQVTVSS | high polyreactivity |
| QVQLVDSGGGLVQAGGSLLLSCSASGSIFFSYAMGLYRQAPGKEREFVAAINSDDASTYADSVKGRFTISRDNAKNTVYLQMNSLKPEDTAVYYCAASFLWSWYDYWGQGTQVTVSS | low polyreactivity |
| QVQLVESGGGLVQAGGSLRLSSAASGFTFASYAMGWYRQAPGKERELVAAIDSDDSTNYADSVKGRFTISRDNAKNTVYLHMNSLKPEDTSVYYCAADEGPYYGIYEYYYWGQGTQVTVSS | high polyreactivity |
| QVQRVESGGGLVQAGGSLRLSCAASGRIFVRNVMGWYRQAPGKEREFVAAITTRGGSTYYADSVKGRFTISRDNAKNTVYLQMNSLKPEDTAVYYCAARYTLRLYWGQGTQVTVSS | high polyreactivity |
| QVQLVESGGGLVQAGGSLRLSCAASGRTFGYNAMGWYRQAPGKERELVASISWSGGTTYYADSVKGRFTISRDNAKNTVYLQMNSLKPEDTAVYYCAADRQSYVTRLYRSYWGNYWGQGTQVTVSS | high polyreactivity |
| QVQLVESGGGLVQAGGSLRLSSASSGSTFPGYTMRWYRPAPGKARELVAYITASDSSTYYADSEKGRFTISRDNAKNTVYLQINSLKPEDTAVYYSAKPPRHTWSFVDYRYEYWGQGTQGTVSS | low polyreactivity |
| QVQLVESGGALVQAGGSLRLSCAASGIIFWLYDMGWSRQAPGKERELVAVMTWSGDSTYADSVKGRFTISRDNAKNTVYLQMNSLKPEDNAVYYCAAREYYRKPYDHWGQGTQVTVSS | high polyreactivity |
| QVQLQESGGGLGQAGRSLRHSFAASGNIFDAGIMGWYRQAPGEERELVACITDGGSTNYADSVKRRFTISRDNAKNTVYLQMNSQKPEDTAVYYCAASWDTIGLFAYWGQGTQVTVSS | high polyreactivity |
| QVQLVESGGGLVQAGGSLRLSCAASGRIFSVNAMGWYRQAPGKERELVAAITPGASTNYADSVKGRFTISRDNAKNTVYLQMNSLKPEDTAVYYCAAGWVSFEDWVLGSYYEFDYWGQGTQVTVSS | low polyreactivity |
| QVQLGESGGGLVQAGGSLRLSCAASGSTFGGYAMGWYRQAPGKERELVAAISSSGTSTYYADSVKGRFTISRDNAKNTVYLQMNSLKPDDTAVYYCATDFSFFSRFDYWGQGTQVTVSS | low polyreactivity |
| QVQLVESGGGLVQAGGRLRLSCAASGSTFATYAMGWYRQAPGKERELVAVISRSGGSTYYADSVKGRFTISRDNAKNTVYLQMNCLKPEDTAVYYCAARPRGKYDYRGQGTQVTVSS | high polyreactivity |
| QVQLVESGGGLVQAGGSLRLSCAASGSTFFDYAMGWYRQAPGKERELVAAISSGGSTKYADSVKGRFTISRDNAKNTVYLQMNSLKPEDTAVYYCAATRWNGRRGYGYWGQGTQVTVSS | high polyreactivity |
| QVQLVESGGGLVQAGGSLRLSCAASGRTFRWNAMGWYRQAPGKERELVAAITKSGGSTYYADSVKGRFTISRDNAKNTVYLQMNSLIPEDTAVYYCNAEPPLYPWAYPSDSYNFWGQGTQVTVSS | low polyreactivity |
| QVQLVESGGGLVQAGGSLRLSCASSGRIFYTYAMGWYRQAPGKERELVAAIRYSGGSTYYADSVKGRFTISRDNAMNTVYLQINSLKPEDTAVYYCAATVYTKQFDYWGQGTQVTVSS | high polyreactivity |
| QVQLVESGGGLVQAGGSLRLSCAASGLTYNRYTMGWYRQAPGKERELVAAITSSGSTYYADSVKGRFTISRDNAKYTVYLQMNSLKPEDTAVYYCNTVYYDWFHYDYWGQGTQVTVSS | high polyreactivity |

| Sequence | polyreactivity (PSR sort gate) |
| --- | --- |
| QVQLVESGRGLVQAGRSLRLSCAASGFIFETYPMGWYRQAPGKVRELVAAISRGASTYYADSVKGRFTISRDNAKNTVYLQMNSLTPEDTAVYNCAAQQGISYGTGVSATNPMDYWGQGTHVTVSS | low polyreactivity |
| QVQLEESGGGLVQAGGSLRLTCAGSGSIFYVYPMGWYRPAPGKERELVAAIYSGASTYYADSVKGRFTISRDNAKNTVYLQKNSLKPEDTAVYYCAAYVFFQTYFSYYVEGDFWGQGTQVTVSS | low polyreactivity |
| QVQLVESGGGLVQAGGSLRLSCAASGSIFSYYAMGWYRQAPGKERELVASITSGGSTNYADSVKGRFTISRDNAKNTVYLQMNSLKPEDTAVYYCNKDGKYHRVLYDYWGQGTQVTVSS | low polyreactivity |
| QVQLVDSGGGLVQAGVSLRLSCAASGSIFLLNAMGWYRQATGKERELVAAISWGGGSTYYADSVKGRFTISRDNAKNTVYLQMNSLKPEDTAVDYCNASVTLGQEVDYWGLGTQVTVSS | low polyreactivity |
| QVQLVESGGGLVQAGGSLRLSCAASGRTFPYNFMGWYRQAPGKERELVAGITGSGDSTFYADSVKGRFTISRDNAKNTVYLQMNSLKPEDTAVYYCAARYRTLNDGYNRNYWGQGTQVTVSS | low polyreactivity |
| QVQLVESGGGLVQAGGSLRLSCAASGRTFAVYSMGWYRQATGKERELVAVISSGGGTDYADSVKGRFRISRDNAKNTVYLQMNSLNPEDTAVYYCAADSVTFLATQPGDYWGQGTQVTVSS | low polyreactivity |
| QVQLVESGGGLVQAGGSLRLICAASRFTYYRNVMGWYRQAPGKERELVAPISRRGDRTYADSVKGRFTISRDNAKNTVYLQMNSLKPEDTAVYYFAPTPYSYWTRYYYWGQGTQVTVTS | high polyreactivity |
| QVQLVESGGGLVQAGGSLRLSCAASGSTFETNAMGWYRQAPGKERELVAAIRWSTGNTYYADSVKGRFTISRDNAKNTVYLQMNSLKPEDTAVYDCAAYKGKHDKEGYWGQGTQVTVSS | low polyreactivity |
| QVQLVESGGGLVQAGGSLRLSCAASGSTSRYNVMGWYRQAPGKERELVAAISSRGVSTYYADSVKGRFTISRDNAKKTVYLQMNSLKPEDTAVYYCAARYGGPSHYGYWGQGTQVTVSS | high polyreactivity |
| QVQLVESGGGLVQAGGSLRLSCAASGRTIQYYTMGWYRQAPGKERELVAGITYRGSSTYYADSVKGRFTISRDNAKNTVYLQMNSLKPEDTAVYYCAAGYWAYVWYYYWGQGTQVTVSS | high polyreactivity |
| QVQLVESGGGLVQAGGSLRLSCAASGRIFSDYAMGWYRQAPGKERELVATISASGGSTYYADSVKGRFTVSRDNAKNSVYLQMNSLKPEDTAVYYCAGDYEGYNFDYWGQGTQVTVSS | low polyreactivity |
| QVQLVESGGGLVQAGGSLRLSCAASGGILDTYAMGWYRQAPGKERELVAAITSGGNTNYADSVKGRFTISRDNAKNTVYLQMNSLKPEDTAVYYCNVVTWYYVFRPWEYDYWGQGSQVTVSS | low polyreactivity |
| QVQLVESGGGLVQAGGSLRLSCAASGFIFYSYAMGWYRQAPGKERELVAAITSSGGNTYYADSVKGRFTISRDNAKNTGYLQMNSLKPEDTAVYYCNRDRKRGYPYQPYDYWGQGTQVTVSS | high polyreactivity |
| QVQLVESGGGLVQAGGSLRISCAASGSTFTTYAMGWYRQAPGKERELVARIRSSGGITYYADSVKGRFTISRDNAKNTVYLQMNSLKPEDTAVYYCAARGQFYNTRVGYWGQGTQVTVSS | high polyreactivity |
| QVQLVESGGGLVQAGGSLRLSCAASGRTFLRNAMGWYRQAPGKERELVAAISWRGGSTYYADSLKGRFTISRDNAKNTVYLQMNSLKPEDTAVYYCNARDGLASDWGQGTQVTVSS | high polyreactivity |
| QVQLVESGGGLVQAGGSLRLSCAASGITFAHYAMGWYRQAPGKERELVAVITSGGSTYYADSVKGRFTISRDNAKNTVYLQMNSLKPEDTAVYYCNRVPRRSIRYDYWGQGTQVTVSS | high polyreactivity |
| QVQLVESGGGLVQAGGSLRLSCAASGNTFRINAMGWYRQAPGKERELVAAISRSTGRTYYADSVKGRFTISRDNAKNTVYLQMNSLKPEDTAVYYCAAGYTGQEHDYWGLGTQVTVSS | high polyreactivity |
| QVQLVESWGGLVQAGGSLRLSCAASGIIFRYYAIGWYRKAPGKERELVAAISRSGARTYYADSVKGRFTISRDNAKNTVYLQMNSLKPEDTAVYYCATEPTSGRFYYWGQGTQVTVSS | high polyreactivity |
| QVQLEESAGGLVQAGGSLRLSCAASGSTFYLNAMGSYRQAPGKERELVAAITVSGGSTYYADSVKGRFTISRDNAKNTVYLQMNSLKPEDNAVYYCARELLSPTYQRWYYYWGQGSQVTVSS | low polyreactivity |
| QVHLVESGGGLVQAGGSLRLSCAASGLILGHYTMGWYRQAPGKERELVAAITSDGGSTYYADSVMGRFTISRDNAKNTVYLQMNSLKPEDTAVFYCAADLPAYTGYESDYWGQGTQVTGSS | low polyreactivity |

Reference: the nanobody polyreactivity screen of Harvey et al. (2022)
